Data reported in the nanobody polyreactivity screen of Harvey et al. (2022).

Assay: yeast display, Sf9 membrane polyspecificity reagent, FACS + sequencing; frameworks hold sequencing errors
Outline: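 After 36–48 hours of galactose induction, yeast (Saccharomyces cerevisiae BJ5465) displaying a synthetic nanobody library were stained at 4 °C for 1 hour with 10% biotinylated, detergent-solubilized Sf9 membrane reagent. Streptavidin microbeads enriched the stained cells before FACS sorting into low and high (top ~1%) gates on anti-HA and streptavidin fluorescence. Each clone's polyreactivity label reflects its gate of origin.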

Sequence	polyreactivity (PSR sort gate)
QVQLEESGGGLVQAGGSLRLSCAASGNIFLIYAMGWYRQAPRKEVEMVAAISFSDDTTDYADSVKGRFTSSRDNAKNTVYLQLNSLKQEDTAVYFCAAELYYDVANTQYDYWGQGTQVTVSS	high polyreactivity
QVQLVESGGGLVQAGGSLRLSCAASGSIFDSNAMGWYRQAPGKERELVASITSDGDTYYADSVKGRFTISRDNAKNTVYLQMNSLKPEDTAVYYCAAYVPYSGLDYWGQGTQVTVSS	low polyreactivity
QVQLVESGGGLVQPGGSLRLRCAASGFIFWIYAMGWYRQAPGKERELVAAISLSSGSTYYADSVKGRFTISRDNAKNTVYLEMNSLKTEDTAVYYCAARGYSHVASRLYYYWGQGTQVTVSS	high polyreactivity
QVQLVESGGGLVQAGGSLRLSCAASGFIFEYYAMGGYRQAPGKERELVAAISGGGRTYYADSVKGRFTISRDNAKNTVYLQMNSLKPEDTAVYYCAAGYAYRGYWVNRITRDGYWGQGTQVTVSS	high polyreactivity
QVQLVESGGRLVQAGGSLRLSCAAAGSTIPKYAMGWYRQPPGKERELVAAITWRGGSTYYADSVKGRFTISRDNAKNTVYLQMNSLKPEDTAVDYCAAEPYYPSRMDYWGQGTQVTVSS	low polyreactivity
QVQLVESGGGLVQAGGSLRLSCAASGSTFDTYAMGWYRQAPGKERELGAAISWSVDSTYYADSVKGRFTISRDNAKNTVYLQMNSLKPEDTAVYYCATVGYGYDYWGQGTQVTVSS	high polyreactivity
QVQLVESGGGLVQAGGSLRLSSAASGSTFGPYPMGWYRPAPGKERELVATISSGGSTYYADSVKGRFTISRDNAKNTVYLQMNSLKPEDTAVYYCAARYWSIYDYWGQGTQVTVSS	low polyreactivity
QVQLVESGGGLVQAGGSLRLSCAASGSILTPNAMGWYRQAPGKERELVATISKGGGRTYYADSVKGRFTISRDNAKNTVYLQMNSLKPEDTAVYYCAADARRNSPGNYWGQGTQVTVSS	high polyreactivity
QVQLVESGGGLVKAGGSLRLSCAASGSIFSNNAMGWYRQAPGKEREFVAAIRGRGTRTYYADSVKGRFTISRDNAKNTVYLQMNSLKPEDTAVYYCAKYPFQPRDLQFNYWGQGTQVTVSS	high polyreactivity
QVQLVESGGGLVQAGGSLRLSCAASGSIVYYNAMGWYRQAPGKERELVASISNGGSTDYADSVKGRFTISRDNAKNTVYLQMNSLKPEDTAVYSCNAKQSYRSEYDYWGQGTQVTVSS	low polyreactivity
QVQLVESGGGLVQAGGSLRLSCAASGFIFKRYAMGWYRQAPGKERELVAPITSNGGRTYYADSVKGRFTISRDNAKNTVYLQMNSLKPEHTAVYYCARDSQYYEQDDYWGQGTQVTVSS	high polyreactivity
QVQLVESGGGLVQAGGSLRLSCAASGSIFRTYVMGWYRQAPGKERELVAAISSSGGRTYYADSVKGRFTISRDNAKNTVYLLMNSLKPEDTAVYYCAAPRTSTRYRLTLQGVNQYDYWGQGTQVTVSS	high polyreactivity
QVQLVESGGGLVQAGGSLRLSCAASGSIFYFNTMAWYRQAPGKERELVAVISRRGGSTYYADSVKRRFTISRDNAKNTVYLQMNSLKPEDTAVYYCNAEVFDLWRSFLSPYEYWGQGTQVTVSS	low polyreactivity
QVQLVESAGGLVQAGGSLRLSCAASAFTFRWYDMGWYRQAPGKERELVAAIDASDGSTYYSDSVKGSFTISRDNPKNTVYLPMNSLKPEDTAVYYCATRLRGGGKGYYYWGQGTQVTVSS	high polyreactivity
QVQLVESGGGLVKAGGSLRLSCAASFFFYDMGWYRQAPGKERELVAAISWRGDTTYYADSVKGRFTISRDNAKNTVYLQMNSLKPEDTAVYYCAADYYGNVVYPSYYWGQGTQVTVSS	high polyreactivity
QVQILESGGGLVQAEGSIRLSCDASGRTFRPYAMGWSRQAPGKDRELVAVISYSGVSTYYADSVKGRFTISRDTEQNNVYLLLNSQIPEDTAVYYCLIRFRKTHYDYWGQGSQVTVSS	high polyreactivity
QVQLHESGGGLVQAGGGLRLSCAASGSISSTGFMGWYRQAPGKESEPVAAIAPGTTTYYADSVKGRFTISRDNAKNTVYLHMKSLRPEDTAVYYCAVFTDNRVAFLYWGEGTQVTVSS	low polyreactivity
QVQLVESGGGLVQAGGSLRLSCAASGRTLGANAMGWYRQAPGKEREFVAAISYSDTRTYADSVKGRFTISRDNAKNTVYFQMNSLKPEDTAVYYCAADYYTWYGILYDYWGQGTQVTVSS	low polyreactivity
QVQLEESGGRLVQAGGSLRLSCAASGSIFALYAMGWYRQAPGKERELVAAIDWSDGGTYYADSVKGRFTISRDNAKNTLYLQMNSLKPEDTAVYYCNRVYSTSRITQYEFDYWGQGTQVTVSS	low polyreactivity
QVQLVESGGGLVQAGGSLRLSCAASGRTFHSNAMGWYRQAPGKERELFAAISYSGGSTYYADSVKGRFTISRDNAKNTVYLQMNSLKPEDTAVYYCNAGAVHKKPARDYWGQGTKVTVSS	low polyreactivity
QVQLVESGGGLVQAGGSLRLSCAASGRIFVPYAMGWYRQAPGKERELVATITFGGGRTYYADSVKGRFTISRDNAKNTVYLQMNSLKPEDTAVYYCAADYYLWRLPVYAQRSFVRGDYWGQGTQVTVSS	low polyreactivity
QVQLVESGGGLVQAGGSRRLSCAASGSTFYGYAMGWYRQAPGKEREFVAAITTSGGSTYYADSVKGRFTISRDNAKNTVYLQMNSLKPEDTAVYYCARDLYTEYRWGRLTYDYWGQGTQVTVSS	low polyreactivity

Sequence	polyreactivity (PSR sort gate)
QVQLVESGGGLVQAGGSLRLSCAASGFIFTWYTMGWSRQAPGKERELVAAITSGGNTNYADSVKGRFTISRDNAKNTVYLQMNSLKPEDTSVYYCALGYLASRLKFAKYDYWGQGTQVNVSS	high polyreactivity
QVQLVESGGGLVQAGGSLRLSCAASGSTFPYYALGWSRQAPGKEREFVATISSSGGSTYYADSVKGRFTISRDNAKNTVYLQMNSLKPEDTAVYYCAARYQTSGFRYRYGYWGQGTQVTVSS	high polyreactivity
QVQLVESGGGLVQAGGSLRLSCAASGRTFHKYAMGWLRQAPGKERELVAAITGSGVRTYYADSVKGRFTISRDNAKNTVYLQMNSLKPEDTAVYYCNADSYNRNGDYWGQGTQVTVSS	high polyreactivity
QVQLVESGGGLVQAGGSLRLSCAASGGIFFYYVMGWYRQAPGKERELVAAITSGGSTYYADSVKGRFTISRDNAKNTVYLQMNSLKPEDTAVYSCNGRDVVDYSVWSRYAYDYWGQGTQVTVSS	low polyreactivity
QVQLVESGGGLVQAGGSLRLSCAASGSIFNLNAMGWYRQAPGTEREFVAGITYSAGRTYYADSVKGRFTISRDNAKNTVYLQMNSLKPVDTAVYYCAARIYSKFTSYGILDSWGQGTQVTVSS	high polyreactivity
QVQLVESGGGLVQAGGSLRLSCAASGFIFVNKAMGWYRQAPGKERELVATISRGGSTNYADSVKGRFTISRDNAKNTVYLQMNSLKPEDTAVYYCNARRSVKVYGVDYWGQGTQVTVSS	high polyreactivity
QVQLVESGGGLVQAGGSLRLSCAASGRILVSYAMGGYRQAPGKERELVAAISRSGGSTYYADSVKGRFTISLDTAKNTVYLQMNSLKPEDTAVYYCNVYRFSRYDYWGQGTLVTVSS	high polyreactivity
QVQLVESVGGLLQAGGTLRLSCAASGITFLDYGRGWYRQATGKERELVATINSGGSTNYADSVKGRFTISRDNAKHTVYLLMNSLKAEDTAVYYCDADYGSDYPKGDYWGQGTQVTVTS	low polyreactivity
QVQLVESGGGLVQARGSLRLSCAASVGTFGSNNMGCYRQAPGKDRELVAAITSGVSTNYADSVKGRFTITRYIAKNTVYLQMNSLKPEDTAVNYSAAGTQAHAYVVRPIEMDYWGQGTQVTVSS	low polyreactivity
QVQLVESGGGLVQAGGSLRLSCAASGRTFRFYAMGWYRQAPGKERELVAAISSGGSTYYADSVKGRFTISRDNAKNTVYLQLNSLKAEDTAVYYCAVKQRDKFAGGRNDYWGQGTQVTVSS	high polyreactivity
QVQLVESGGGLVQAGGSLRLRCAASGIIIYDYAMGWYRQAPGKERELVAAISSTAVGTYYADSVKGRFTISRDNAKNTVYLQMNSLKPVDTAVYYCAAAVSPHSEGFGEYNYWGQGTQVTVSS	low polyreactivity
QVQLVESGGGLVQAGGSLRLSCAASGRTFAWYAMGWYRQAPGKERELVAVIRRGSGDTYYADSVKGRFTISRDNAKNTVYLQMNSLKPEDTAVYYCAAKSVAYKTRAGGVRYESWGQGTQVTVSS	high polyreactivity
QVQLVESGGGLVQAGGSLRLSCAASGRILAWYAMGWYRQAPGKEREFVAGITGSVGSTYYADSVKGRFTISRDKAKNTVYLQMNSLKPEDPAVYYCNKDWDRTSGPKHYYWGQGTQVTVSS	low polyreactivity
QVQLVESGGGLVQAGGSLRLSCSASGSTSYYYAMGWYRQAPGKERELVATISTTGAGTYYADSVKGRFTISRDNAKTTVYLQMNILKPEDTAVFYCAKDGKASRDDAEYYYWGQGTQVTVSS	low polyreactivity
QVQLVESGGGLVQAGGSHRLSCAASGRIFVGYAMGWYRQAPGKERELVAGISGGGRTNYADSVKGRFTISRDNAKNTVYLQMNSLKPEDTAVYYCIAGGSVWYRSQRGWKGYYNQMDYWGQGTQVTVSS	high polyreactivity
QVQLVESGGGLVQAGGSLRLSCAASGITFTSYVMGWYRQAPGKERELVAAIRWSGGRTYYADSVKGRFTISRDNAKITVYLQMNSLKPEDTAVYYCNRVTRSHVDYWGQGTQVTLSS	high polyreactivity
QVQLVESGGGLVQAGGSLRLSCAASGSIFKAYDMGWYRPAPGKERELVAGISSSDSTYYADSVKGRFSISRDNAKNTVYLQLNSLKPEDTAVYYCAADPVFAAAYIHLYEYWGQGTQVTVSS	low polyreactivity
QVQLVESGGGLVQAGGSLRLSSAPSGFTFDENAMGWYRQAPGINYSGASTYYADSVKGRFTISRDNAKNTVYLQMNSLKPEDTAVYYCAAEVVAQMNYWGQGTQVTVSS	low polyreactivity
QVQLVESGGGLVQAGGSLRLSCDASGFTFTAYAMGSYRQAPGKERELVAAINWSGSRTYYADSVKGRFTISRDNAKNTVYLQMNSLNPEDTAVYYCAAGWTSSRYDYWGQGTQVTVSS	high polyreactivity
QVQLVESGGGLVQAGGTLRISCAASGSIFWYYAMGSYRQAPGKERELVAAISKSGGSTYYADSVKVRFTISRDNAKNTVYLQMNSLKQEDTAVYYCAKYGPVIDGVDYWGQGTQVTVSS	low polyreactivity
QVQLVESGGGLVQAGGSLRLSCAASGSTVINYAMGWYRHAPGKERELVATLTSDGRTYYADSVKGRCTISRDNAKNTVYLQMISLKPEDTAVYSCAKSYGGVTEYDYWGQGTQVTVSS	low polyreactivity
